Laboratory results taken from patent US20250237662A1.
Substitutions are numbered along the chain they refer to.

How the values were obtained:
[1] = molecular target: humanized development candidate monoclonal antibody IgG4 (hIgG4); assay: Gyrolab, mAb as capture, hIgG4 8 ng/ml
[2] = molecular target: humanized development candidate monoclonal antibody IgG4 (hIgG4); assay: Gyrolab, mAb as capture, hIgG4 40 ng/ml
[3] = molecular target: humanized development candidate monoclonal antibody IgG4 (hIgG4); assay: Gyrolab, mAb as capture, hIgG4 1.6 ng/ml
[4] = molecular target: humanized development candidate monoclonal antibody IgG4 (hIgG4); assay: Gyrolab, mAb as capture, hIgG4 200 ng/ml
[5] = molecular target: humanized development candidate monoclonal antibody IgG4 (hIgG4); assay: Gyrolab, mAb as capture, hIgG4 0.32 ng/ml
[6] = molecular target: humanized development candidate monoclonal antibody IgG4 (hIgG4); assay: Gyrolab, mAb as capture, hIgG4 1000 ng/ml
[7] = molecular target: humanized development candidate monoclonal antibody IgG4 (hIgG4); assay: Gyrolab, mAb as capture, hIgG4 5000 ng/ml
[8] = molecular target: humanized therapeutic monoclonal antibody IgG1 (hIgG1); assay: direct ELISA, hIgG1 coated, B-cell culture medium
[9] = molecular target: humanized development candidate monoclonal antibody IgG4 (hIgG4); assay: direct ELISA, hIgG4 coated, B-cell culture medium
[10] = molecular target: cynomolgus monkey IgG (cynoIgG); assay: direct ELISA, cynoIgG coated (hIgG1/CynoIgG screen), B-cell culture medium
[11] = molecular target: cynomolgus monkey IgG (cynoIgG); assay: direct ELISA, cynoIgG coated (hIgG4/CynoIgG screen), B-cell culture medium
[12] = molecular target: humanized development candidate monoclonal antibody IgG4 (hIgG4); assay: SPR (Biacore T200), mAb captured by anti-rabbit mAb on CM5, antigen 80-0 nM, 1:1 fit
[13] = molecular target: humanized therapeutic monoclonal antibody IgG1 (hIgG1); assay: as above
[14] = molecular target: internal research reagent human Fab (hFab); assay: as above
[15] = molecular target: humanized development candidate monoclonal antibody IgG4 (hIgG4); assay: Gyrolab, mAb as capture, hIgG4 8 ng/ml, against the blank
[16] = molecular target: humanized development candidate monoclonal antibody IgG4 (hIgG4); assay: Gyrolab, mAb as capture, hIgG4 40 ng/ml, against the blank
[17] = molecular target: humanized development candidate monoclonal antibody IgG4 (hIgG4); assay: Gyrolab, mAb as capture, hIgG4 1.6 ng/ml, against the blank
[18] = molecular target: humanized development candidate monoclonal antibody IgG4 (hIgG4); assay: Gyrolab, mAb as capture, hIgG4 200 ng/ml, against the blank
[19] = molecular target: humanized development candidate monoclonal antibody IgG4 (hIgG4); assay: Gyrolab, mAb as capture, hIgG4 0.32 ng/ml, against the blank
[20] = molecular target: humanized development candidate monoclonal antibody IgG4 (hIgG4); assay: Gyrolab, mAb as capture, hIgG4 1000 ng/ml, against the blank
[21] = molecular target: humanized development candidate monoclonal antibody IgG4 (hIgG4); assay: Gyrolab, mAb as capture, hIgG4 5000 ng/ml, against the blank
[22] = molecular target: humanized therapeutic monoclonal antibody IgG1 (hIgG1); assay: ELISA, medium of transfected HEK293F; signal on hIgG1 over signal on cynoIgG
[23] = molecular target: humanized development candidate monoclonal antibody IgG4 (hIgG4); assay: ELISA, medium of transfected HEK293F; signal on hIgG4 over signal on cynoIgG
[24] = molecular target: humanized development candidate monoclonal antibody IgG4 (hIgG4); assay: Gyrolab immunoassay quality control, biotinylated 16F5 as capture, hIgG4 in matrix with 4% cynomolgus monkey serum, Alexa Fluor 647 goat anti-human IgG detection
[25] = molecular target: drug: a monoclonal antibody of human IgG4 isotype (PandA assay); assay: PandA assay, monkey matrix, mAb 1 ug/ml
[26] = molecular target: drug: a monoclonal antibody of human IgG4 isotype (PandA assay); assay: PandA assay, monkey matrix, mAb 5 ug/ml
[27] = molecular target: drug: a monoclonal antibody of human IgG4 isotype (PandA assay); assay: PandA assay, mAb 1 ug/ml in monkey plasma
[28] = molecular target: drug: a monoclonal antibody of human IgG4 isotype (PandA assay); assay: PandA assay, monkey matrix, mAb 0.5 ug/ml
[29] = molecular target: drug: a monoclonal antibody of human IgG4 isotype (PandA assay); assay: PandA assay, monkey matrix, mAb 0.75 ug/ml
[30] = molecular target: drug: a monoclonal antibody of human IgG4 isotype (PandA assay); assay: PandA assay, mAb 0.5 ug/ml in monkey plasma
[31] = molecular target: drug: a monoclonal antibody of human IgG4 isotype (PandA assay); assay: PandA assay, mAb 0.75 ug/ml in monkey plasma
[32] = molecular target: drug: a monoclonal antibody of human IgG4 isotype (PandA assay); assay: PandA assay, signal to noise against the negative control
[33] = molecular target: drug: a monoclonal antibody of human IgG4 isotype (PandA assay); assay: PandA assay (PEG precipitation, acid dissociation, MSD plate, sulfo-TAG-drug), mAb 5 ug/ml in monkey plasma

B1: rabbit anti-human IgG monoclonal antibody clone 11F9 (antibody, V domains shown)
VH: QQQLEESGGGLVQPEGSLTLTCIASGFSFSSSHWICWVRQAPGKGLEWIACMSTSSGSTYDANWAKGRFTISKTSSTTVTLQMTSLTAADTATYFCARDVGGSTTYFDLWGPGTLVTVSS
VL: AYDMTQTPASVSEPVGGTVTIKCQASQSISNELSWYQQKPGQPPKLLIYRASTLASGVPSRFKGSGSGTQFTLTINGVECADAATYYCQQGYSISNVDNTFGGGTEVVVKG
[1]
  Av. Resp.: 12.8
[2]
  Av. Resp.: 45.1
[3]
  Av. Resp.: 5
[4]
  Av. Resp.: 148
[5]
  Av. Resp.: 3.1
[6]
  Av. Resp.: 289
[7]
  Av. Resp.: 330
[8]
  OD450: 1.11 OD450
[9]
  OD450: 0.91 OD450
[10]
  OD450: 0.089 OD450
[11]
  OD450: 0.092 OD450
[12]
  Kd: 0.279 nM
[13]
  Kd: 0.619 nM
[14]
  Kd: 1.12 nM

B2: rabbit anti-human IgG monoclonal antibody clone 19B1 (antibody, V domains shown)
VH: QEQLVESGGGLVQPEGSLTLTCTASGFSFSDSYYMCWVRQAPGKGLEWIACIYGGTITNTYYASWAKGRFTISKTSSTTVTLQMTSLTAADTATYFCARDLGAAGDAYNLWGPGTLVTVSS
VL: ASDMTQTPASVSEPVGGTVTIKCQASENIYSSLAWYQQKPGQPPKLLIYDASNLASGVPSRFSGSGSGTEFTLTISDLECADAATYYCQCTYRSSSSSYAFGGGTEVVVKG
[1]
  Av. Resp.: 6.2
[2]
  Av. Resp.: 22.8
[3]
  Av. Resp.: 2.7
[4]
  Av. Resp.: 82.9
[5]
  Av. Resp.: 1.8
[6]
  Av. Resp.: 203
[7]
  Av. Resp.: 246
[8]
  OD450: 1.15 OD450
[9]
  OD450: 0.954 OD450
[10]
  OD450: 0.055 OD450
[11]
  OD450: 0.102 OD450
[12]
  Kd: 0.067 nM
[13]
  Kd: 0.239 nM
[14]
  Kd: 0.54 nM

B3: rabbit anti-human IgG monoclonal antibody clone 16F5 (antibody, V domains shown)
VH: QQQLEESGGGLVKPGGTLTLTCKASGIDFSNYYYMCWVRQAPGKGLELIACIYTGSSGSTWYATWAKGRFTISKTSSTTVTLQMTSLTAADTATYFCARDRDVGSLYDSLDLWGQGTLVTVSP
VL: AYDMTQTPASVEAAVGGTVTINCQASQSINNWLSWYQQKPGQRPKLLIYQASTLASGVSSRFKGSGSGTHFTLTISDLECADAATYYCQQGWSIDDIDNAFGGGTEVVVKG
[1]
  Av. Resp.: 18.5
[2]
  Av. Resp.: 64.2
[3]
  Av. Resp.: 7
[4]
  Av. Resp.: 197
[5]
  Av. Resp.: 4.4
[6]
  Av. Resp.: 369
[7]
  Av. Resp.: 385
[8]
  OD450: 1.39 OD450
[9]
  OD450: 1.37 OD450
[15]
  S/B: 4.7
[16]
  S/B: 16.4
[17]
  S/B: 1.8
[18]
  S/B: 50.5
[19]
  S/B: 1.1
[20]
  S/B: 94.4
[21]
  S/B: 98.6
[10]
  OD450: 0.184 OD450
[11]
  OD450: 0.154 OD450
[22]
  ELISA signal ratio hIgG1/CynoIgG: 5.9
[23]
  ELISA signal ratio hIgG4/CynoIgG: 6.33
[12]
  Kd: 0.514 nM
  koff: 8.09e-05 s⁻¹
  kon: 157000 M⁻¹ s⁻¹
[13]
  Kd: 0.127 nM
  koff: 2.21e-05 s⁻¹
  kon: 173000 M⁻¹ s⁻¹
[14]
  Kd: 1.93 nM
  koff: 0.00584 s⁻¹
  kon: 3.02e+06 M⁻¹ s⁻¹
[24]
  Average Response (HQC, expected conc 750 ng/mL): 414
  Average Response (LQC, expected conc 40.0 ng/mL): 70.3
  Average Response (MQC, expected conc 0.600 ng/mL): 5.85
  Response (HQC, expected conc 750 ng/mL, CD struct C1): 400
  Response (HQC, expected conc 750 ng/mL, CD struct C2): 427
  Response (LQC, expected conc 40.0 ng/mL, CD struct C3): 68.6
  Response (LQC, expected conc 40.0 ng/mL, CD struct C4): 72
  Response (MQC, expected conc 0.600 ng/mL, CD struct C5): 5.88
  Response (MQC, expected conc 0.600 ng/mL, CD struct C6): 5.83
  S/B (HQC, expected conc 750 ng/mL, CD struct C1): 87.7
  S/B (HQC, expected conc 750 ng/mL, CD struct C2): 93.6
  S/B (LQC, expected conc 40.0 ng/mL, CD struct C3): 15
  S/B (LQC, expected conc 40.0 ng/mL, CD struct C4): 15.8
  S/B (MQC, expected conc 0.600 ng/mL, CD struct C5): 1.29
  S/B (MQC, expected conc 0.600 ng/mL, CD struct C6): 1.28

B4: rabbit anti-human IgG monoclonal antibody clone 11G5 (antibody, V domains shown)
VH: QSLEESGGDLVKPGASLTLTCTASGFSFSSSYYMCWVRQAPGKRLEWIACIYGGGLSNTYYAGWAKGRFTISKTSSTTVTLQMTSLTAADTATYFCARDATSGDYLNLWGPGTLVTVSS
VL: AVVMTQTASPVSGAVGGTVTINCQASQSISASALSWYQQKPGQPPKLLIYAASTLESGVPSRFKGSGSGTQFTLTISGVQCDDAATYYCAYDGYRLSSADNIFGGGTEVVVKG
[1]
  Av. Resp.: 20.3
[2]
  Av. Resp.: 60.9
[25]
  S/N (monkey): 2.4
[26]
  S/N (monkey): 9.76
[3]
  Av. Resp.: 9.8
[4]
  Av. Resp.: 184
[5]
  Av. Resp.: 7.5
[6]
  Av. Resp.: 394
[7]
  Av. Resp.: 468
[27]
  ECL Signal: 320
[28]
  S/N (monkey): 1.58
[29]
  S/N (monkey): 1.92
[30]
  ECL Signal: 171
[31]
  ECL Signal: 257
[8]
  OD450: 1.25 OD450
[9]
  OD450: 1.32 OD450
[15]
  S/B: 2.7
[16]
  S/B: 8.2
[17]
  S/B: 1.3
[18]
  S/B: 24.8
[19]
  S/B: 1
[20]
  S/B: 53.1
[21]
  S/B: 63.3
[10]
  OD450: 0.161 OD450
[11]
  OD450: 0.159 OD450
[22]
  ELISA signal ratio hIgG1/CynoIgG: 4.94
[23]
  ELISA signal ratio hIgG4/CynoIgG: 5.19
[32]
  S/N: 1.8
[12]
  Kd: 0.0429 nM
  koff: 5.8e-06 s⁻¹
  kon: 135000 M⁻¹ s⁻¹
[13]
  Kd: 0.187 nM
  koff: 2.52e-05 s⁻¹
  kon: 135000 M⁻¹ s⁻¹
[14]
  Kd: 0.591 nM
  koff: 0.000531 s⁻¹
  kon: 899000 M⁻¹ s⁻¹
[33]
  ECL Signal: 1550

B5: rabbit anti-human IgG monoclonal antibody clone 9E6 (antibody, V domains shown)
VH: QSLEESGGDLVKPGASLTLTCKASGFDFSSSYYMCWVRQAPGRLEWIACIYGGGLSNTYYAGWAKGRFTISKTSSTTVTLQMTSLTVADTATYFCARDAGTSGDYLNLWGPGTLVTVSS
VL: B4 VL with A31S, A33Y, A51G, E56A, G93A, A99P
[1]
  Av. Resp.: 8.6
[2]
  Av. Resp.: 28.4
[3]
  Av. Resp.: 4.1
[4]
  Av. Resp.: 103
[5]
  Av. Resp.: 3
[6]
  Av. Resp.: 256
[7]
  Av. Resp.: 327
[8]
  OD450: 1.28 OD450
[9]
  OD450: 1.28 OD450
[15]
  S/B: 3
[16]
  S/B: 9.8
[17]
  S/B: 1.4
[18]
  S/B: 35.5
[19]
  S/B: 1.1
[20]
  S/B: 88.2
[21]
  S/B: 113
[10]
  OD450: 0.14 OD450
[11]
  OD450: 0.146 OD450
[22]
  ELISA signal ratio hIgG1/CynoIgG: 10.2
[23]
  ELISA signal ratio hIgG4/CynoIgG: 9.53
[12]
  Kd: 0.196 nM
  koff: 2.68e-05 s⁻¹
  kon: 137000 M⁻¹ s⁻¹
[13]
  Kd: 0.426 nM
  koff: 6.1e-05 s⁻¹
  kon: 143000 M⁻¹ s⁻¹
[14]
  Kd: 0.518 nM
  koff: 0.00603 s⁻¹
  kon: 1.16e+07 M⁻¹ s⁻¹
